Data reported in the nanobody polyreactivity screen of Harvey et al. (2022).

Test: yeast display, Sf9 membrane polyspecificity reagent, FACS + sequencing; frameworks hold sequencing errors
Procedure, shortened: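 A nanobody's polyreactivity label depends on the gate it was sorted from. Yeast display cells were stained with 10% biotinylated, detergent-solubilized Sf9 membrane reagent for 1 hour at 4 °C, enriched on streptavidin microbeads and sorted by FACS. The low and high (top ~1%) gates were set on anti-HA fluorescence for expression and streptavidin fluorescence for reagent binding.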

Sequence | polyreactivity (PSR sort gate)
QVQLVESGGGLVQAGGSLRLSCADSGRIFSSNAIGWYRQAPGQERELVASISSTGSTKYADSVKGRFTISRDNAKNTVYVQMNSLKPEDTAVYYCAAGSYLWHFTFDYWGQGTQVTVSS | low polyreactivity
QVQLVESGGGLVQAGGSLRLSSAASGLILYSYAMGWYRQAPGKERELVADISSGGITNYADSVKGRFTISRDNAKNTVYLQMNSLKPEDTAVYYCAADTRPVNYILYDYWGQGTQVTVSS | low polyreactivity
QVQLVESGGGLVQAGGSLRLSCAASGIIFVYYTMGWYRQAPGKERELVAAITSGGSTYYADSVKGRFTISRDNAKNTVYVQMNSLKPEDTAVYYCAAVGRPPYAGDRGYWGQGTQVTVSS | high polyreactivity
QVQLVESGGGLVQAGGSLRLSCAASGSTFGRNAMGWYRQAPGKERELVAAISYSGGSTYYADSVKGRFTISRDNAKNTVYLQMNSLKPEDTAVYYCNTVPKPWYSWKYAYDYWGQGTQVTVSS | high polyreactivity
QVQLVESGGGLVQAGGSLRLSCAASGITFTVYAMGWYRQAPGKERELVAAISQSGGSTYYADSVKGRFTISRDNAKNTVYLQMNSLNPEYTAVYDCNSDTVWGPYRSYIPFDYWGQGTQVNVSS | low polyreactivity
QVQLVESGGGLVQAGGSLRLSCAASGSTFEYYAMGWYRQAPGKERELVAAITRSGSRTRYADSVKGRFTISRDNAKNTVYLQMNSLKPEDTAVYYCARLSSARYPFDSWGQGTQVTVSS | high polyreactivity
QVQHVESGGGLVQAGGSLRLSCAASGLTFYSYAMGWYRQAPGKERELVATISGGGSTTYADSVKGRFTISRDNAKNTVYLQMNSLKPEDTAVYYCAARSNHYRGWPVPLGYWGQGTQVTVSS | high polyreactivity
QGQLEESGGGLVQAGGSLRLSCAASGNTFRSYAMGSYRQAPGKERELVAAISGRGGSTYYADSVKGRFTISRDNAKYTVFVQLNSLKPDDTAVYYCAAESRRVNYANDDWGQGTQVTVSS | high polyreactivity
QVQLVESGGGLVQAGGSLRLSCAGSGSTFRSNAMGWYRQAPGKERELVAAISQRGGSTYYADSVKGRFTISRDNAKNTVYLQMNSLKPEDTAVYYCAAQYFRRSGYWGQGTQVTVSS | high polyreactivity
QVQLVESGGGLVQAGGSLRLSCAASGSTFYYYAMGWYRQAPGKERELVAAISWRCSSTYYADSVKGRFTISRDNAKNTVYLQMNSLKPEDTAVYYCAAGYPGRVSGYLFGTRATYYYWGQGTQVTVSS | high polyreactivity
QVQLVESGGGIVQAGGSLRLSCAASGSISSAYAMGWYRQAPGKERELVAVITSGGSTNYADSVKGRFTISRDNAKNTVYLQMNSLKQEDTAVYYCATPVASVTGYDYWGLGTQVTVSS | low polyreactivity
QDQLVESGGGLVKAGGSLRLSCAASGGTFYYYAMGWYRQAPGKERELVAANTRSGGNAYYADSVKARFTISRDNAKNTVYLLLHSLKPEDTAVYYCAAPFVNFVGSLVYAGYDSCGQGTQVTVSS | low polyreactivity
QVQHVESGRGLVQAGGSLRLICAASGRTFGRNAMGWYRQAPGQERELVAAITSGGSTSYADSVKGRFTISRDNAKNPVYLQMNSLKPEDTAVYYCRQFSVWGYDYWGQGTQLTVSS | high polyreactivity
QVQLVESGGGLVQAGGSLRLSCAASGSIYYNAMGWYRQAPGKERELVAAISTSGGTTYYADSVKGRFTISRDNAKNTVYLQMISQKPEDTAVYYCNARPSRRGAFDYWGQGTQVTVSS | high polyreactivity
QVQLVESGGGLVQAGGSLRLSCAASGFTFRYYAMGGYRQAPGKERELVAAITASGGSTNYADSVKGRFTISRDNAKNTVYLQMNSLKPEDTAVYYCAADVRFSYYNRYRGYSAYDNWGQGTQVTVSS | high polyreactivity
QDQHGDSGGGLVQAGGSLRLSCSASGFTITYNTMGWYRQAPGKERELVATITAGDGSTYYADSVKGRFTISRDNAKNTVYFQMNSLKPEDTAVYYCAADAYYYYAGGHYYWGQGTQVTVSS | low polyreactivity
QVQLVESGGGLVQAGGSLRLSCAASGSIFGWYAMGWYRQAPGKERELVAAISSSDGSTYYADSVKGRFTISRDNAKNTVYLQMNSLTPEDTAVYYCAKVYIRQNLAPYGYWGQGTQVTVSS | low polyreactivity
QVQLQESGGGLVQAGGSLRLSCAASGSISHYIFMGWYRQAPGKEREFVAGIGYGGTTNYADSVKGRFTISRDNAKNTVYLQMNSLKPEDTAMYYCAAREATEFYLYYWGQGTQVTVSS | low polyreactivity
QVQLVESGGGLVQAGGSLRLSCAASGSTFDYNAMGWYRQAPGKERELVAAISRGGNTDYADSVKGRFTISRDNAKNSVYLQMNSLKPEDTAVYYCAADALLEWFDVAYFAYEYWGQGTQVTVSS | low polyreactivity
QVQLVESGGGLVQAGGSLRLSCAASGFTFAYYAMGWYRQAPGKERELVASISYNGGITNYADSVKGRFTISRDNAKNTVYLQMNSLKPEDTAVYYCAAGVFFFTFDYWGQGTQVTVSS | low polyreactivity
QVQLVESGGGLDQAGGSLRLSCAASGFTFRRYAMGWYSQAPGKEREFVAAITTRGSNTYYADSVKGRFTISRDNAKNTVYLQMNSLKPEDTAVYYCAASYYPPGHYDYWGQGTQVTVSS | high polyreactivity
QVQLVESGGGLVQAGGSLRLTCAASGSIIALYAMGWYRQAPGKERELVATISSCVSTYYADSVKGRFTISRDNAKNTVYLQLNSLKPEDTAVYYCAADKTVRSSNYDYWGQCTQVTVSS | low polyreactivity
